# T1: GAL4-ORF56 (Kaposi's sarcoma-associated herpesvirus …, UniProt Q76RG1 1-843)
# T1 construct: KSHV ORF56, primase (PRI); also called GALF4-ORF56; source: 293T, transfected, mammalian two-hybrid fusion
# T1 sequence: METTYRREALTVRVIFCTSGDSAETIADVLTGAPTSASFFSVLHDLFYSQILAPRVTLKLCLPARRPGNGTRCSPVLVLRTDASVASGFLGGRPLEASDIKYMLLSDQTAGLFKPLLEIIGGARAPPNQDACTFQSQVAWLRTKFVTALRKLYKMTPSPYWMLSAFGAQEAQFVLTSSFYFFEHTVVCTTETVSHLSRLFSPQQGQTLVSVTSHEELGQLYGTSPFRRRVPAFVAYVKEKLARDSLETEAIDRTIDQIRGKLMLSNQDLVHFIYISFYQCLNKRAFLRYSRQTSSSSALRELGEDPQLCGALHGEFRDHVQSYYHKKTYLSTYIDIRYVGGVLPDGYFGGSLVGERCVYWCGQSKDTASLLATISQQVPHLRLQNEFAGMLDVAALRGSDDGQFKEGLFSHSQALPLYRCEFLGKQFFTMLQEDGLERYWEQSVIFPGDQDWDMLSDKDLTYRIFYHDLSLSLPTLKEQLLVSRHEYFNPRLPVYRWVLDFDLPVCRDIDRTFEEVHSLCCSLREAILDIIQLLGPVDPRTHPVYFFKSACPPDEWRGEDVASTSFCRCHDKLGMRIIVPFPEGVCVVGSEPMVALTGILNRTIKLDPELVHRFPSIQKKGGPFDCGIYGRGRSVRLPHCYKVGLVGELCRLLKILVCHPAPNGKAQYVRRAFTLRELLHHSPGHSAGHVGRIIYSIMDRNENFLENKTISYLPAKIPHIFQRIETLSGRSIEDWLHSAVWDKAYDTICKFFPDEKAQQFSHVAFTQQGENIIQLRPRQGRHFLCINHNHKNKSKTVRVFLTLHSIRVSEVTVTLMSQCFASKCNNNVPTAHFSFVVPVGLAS
# T2: GAL4-ORF40/41 (Kaposi's sarcoma-associated herpesvirus …, UniProt Q2HR92 1-669)
# T2 construct: KSHV ORF40/41, primase-associated factor (PAF); source: 293T, transfected, mammalian two-hybrid fusion
# T2 sequence: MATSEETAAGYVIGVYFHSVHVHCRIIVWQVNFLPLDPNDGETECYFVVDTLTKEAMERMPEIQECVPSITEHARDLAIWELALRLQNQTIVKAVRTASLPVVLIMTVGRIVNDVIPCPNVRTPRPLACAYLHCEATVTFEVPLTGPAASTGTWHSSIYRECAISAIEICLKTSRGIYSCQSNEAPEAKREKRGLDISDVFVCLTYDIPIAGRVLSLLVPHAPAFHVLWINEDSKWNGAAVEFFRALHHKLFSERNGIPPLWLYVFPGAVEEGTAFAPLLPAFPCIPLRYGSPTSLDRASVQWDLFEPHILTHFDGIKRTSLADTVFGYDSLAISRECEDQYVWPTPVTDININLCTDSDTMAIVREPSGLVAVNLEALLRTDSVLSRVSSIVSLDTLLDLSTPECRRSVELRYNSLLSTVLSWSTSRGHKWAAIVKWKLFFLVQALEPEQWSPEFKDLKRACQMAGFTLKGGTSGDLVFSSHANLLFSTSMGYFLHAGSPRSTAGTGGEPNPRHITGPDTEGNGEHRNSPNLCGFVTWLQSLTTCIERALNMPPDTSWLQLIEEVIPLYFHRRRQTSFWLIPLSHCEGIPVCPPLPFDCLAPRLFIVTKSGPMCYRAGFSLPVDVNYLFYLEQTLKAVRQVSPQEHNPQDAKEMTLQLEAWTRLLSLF
# B1: VP16-ORF40/41 (natural protein)
# chain: T2 sequence
# notes: KSHV ORF40/41, primase-associated factor (PAF); source: 293T, transfected, mammalian two-hybrid fusion
# B2: VP16-ORF44 (natural protein)
# chain: MDSSEGCTDMDEPSPGFILNMTSDAKVRSVVEQIDRLSNITTSPPEMGWYDLEFDPLEDEGPFLPFSAYVITGTAGAGKSTSVSALHQNLNCLITGATVVAAQNLSRALKSYCPTIYHAFGFKSRHINICQRKVPKVTQSSIEQLQRYELARYWPTVTDIIREFMRKKQKGQYSSLSQSAFRLLCRMGGANLWTSNIIVIDEAGTLSSHILTAVVFFYWFYNSWLDTPLYRNGAVPCIVCVGSPTQTDAFQSVFNHTQQRNEISACDNVLTFLLGKREVADYIRLDENWALFINNKRCTDPQFGHLLKTLEYNLDISPELMDYIDRFVVPKSKILDPLEYAGWTRLFISHQEVKSFLATLHTCLSSNKDAVSTKLFTCPVVCEVFTEPFEEYKRAVGLTHMTPIEWVTKNLFRLSNYSQFADQDMAVVGTYITDASTQITFATKFVKNSYATLTGKTKKCICGFHGSYQRFKSILDGELFIESHSHDNPAYVYSFLSTLLYNAMYSFYAHGVKQGHEEFLRDLRELPVSQELISEMSSEDVLGQEGDTDAFYLTASLPPSPTHAALPTLVAYYSGAKELFCNRLALARRHFGDEFLHSDFSTFTVNIVVRDGVDFVSTSPGLHGLVAYASTIDTYIIQGYTFLPVRFGRPGGQRLSEDLRRKMPSIVVQDSSGFIACLENNVTKMTETLEGGDVFNICCAGDYGISSNLAMTIVKAQGVSLSRVAISFGNHRNIRASLVYVGVSRAIDARYLVMDSNPLKLMDRGDAQSPSSKYIIKALCNPKTTLIY
# notes: KSHV ORF44, helicase (HEL); source: 293T, transfected, mammalian two-hybrid fusion
# B3: VP16-ORF6 (natural protein)
# chain: MALKGPQTLEENIGSAAPTGPCGYLYAYVTHNFPIGEASLLGNGYPEAKVFSLPLLHGLTVESDFPLNVKAVHKKIDATTASVKLTSYHREAIVFHNTHLFQPIFQGKGLEKLCRESRELFGFSTFVEQQHKGTLWSPEACPQLPCANEIFMAVIVTEGFKERLYGGKLVPVPSQTTPVHIGEHQAFKIPLYDEDLFGPSRAQELCRFYNPDISRYLHDSIFTGIAQALRVKDVSTVIQASERQFVHDQYKIPKLVQAKDFPQCASRGTDGSTLMVIDSLVAELGMSYGLSFIEGPQDSCEVLNYDTWPIFENCETPDARLRALEVWHAEQALHIGAQLFAANSVLYLTRVAKLPQKNQRGDANMYNSFYLQHGLGYLSEATVKENGASAFKGVPVSALDGSSYTLQHLAYASSFSPHLLARMCYYLQFLPHHKNTNSQSYNVVDYVGTAAPSQMCDLCQGQCPAVCINTLFYRMKDRFPPVLSNVKRDPYVITGTAGTYNDLEILGNFATFREREEEGNPVEDAPKYTYWQLCQNITEKLASMGISEGGDALRTLIVDIPSFVKVFKGIDSTVEAELLKFINCMIKNNYNFRENIKSVHHILQFACNVYWQAPCPVFLTLYYKSLLTVIQDICLTSCMMYEQDNPAVGIVPSEWLKMHFQTMWTNFKGACFDKGAITGGELKIVHQSMFCDLFDTDAAIGGMFAPARMQVRIARAMLMVPKTIKIKNRIIFSNSTGAESIQAGFMKPASQRDSYIVGGPYMKFLNALHKTLFPSTKTSALYLWHKIGQTTKNPILPGVSGEHLTELCNYVKASSQAFEEINVLDLVPDTLTSYAKIKLNSSILRACGQTQFYATTLSCLSPVTQLVPAEEYPHVLGPVGLSSPDEYRVKVAGRSVTIVQSTLKQAVSTNGRLRPIITVPLVVNKYTGSNGNTNVFHCANLGYFSGRGVDRNLRPESVPFKKNNVSSMLRKRHVIMTPLVDRLVKRIVGINSGEFEAEAVKRSVQNVLEDRDNPNLPKTVVLELVKHLGSSCASLTEEDVIYYLGPYAVLGDEVLSLLSTVGQAGVPWTAEGVASVIQDIIDDCELQFVGPEEPCLIQGQSVVEELFPSPGVPSLTVGKKRKIASLLSDLDL
# notes: source: 293T, transfected, mammalian two-hybrid fusion
# Columns and labels:
# Settings in all cases: partners not purified
# GAL4-ORF56 = target: T1, GAL4-ORF56; assay: two-hybrid; mammalian two-hybrid (GAL4/VP16) in 293T cells, pGal4(5×)-Luc reporter, GAL4 and VP16 fusions coexpressed with further FLAG-tagged core replication proteins, luciferase at 24 h, fold activation over empty vector; radicicol (0.25-1 µM) inhibited the activation by GAL4-ORF56, VP16-ORF44 and F-ORF40/41 dose-dependently
# GAL4-ORF40/41 [1] = target: T2, GAL4-ORF40/41; assay: as above
# GAL4-ORF40/41 [2] = target: T2, GAL4-ORF40/41; assay: two-hybrid; mammalian two-hybrid (GAL4/VP16) in 293T cells, pGal4(5×)-Luc reporter, only the GAL4 and the VP16 fusion coexpressed, luciferase at 24 h, fold activation over empty vector; radicicol (0.25-1 µM) inhibited the activation by GAL4-ORF59 and VP16-ORF9 dose-dependently
binder,measurement,setting,value
B1,fold reporter activation (F-ORF44 coexpressed),GAL4-ORF56,≤ 280 fold
B2,fold reporter activation (F-ORF40/41 coexpressed),GAL4-ORF56,≤ 55 fold
same,fold reporter activation (F-ORF56 coexpressed),GAL4-ORF40/41 [1],≤ 60 fold
B3,fold reporter activation,GAL4-ORF40/41 [2],56 fold

# — PMC10715029, “Interaction and assembly of the DNA replication core proteins of Kaposi’s sarcoma-associated herpesvirus” (Microbiology Spectrum, 2023)
